Data taken from PMC10914751 (Nature Communications, 2024).

B2: Plk4 CPB(581–808) (domain or fragment, UniProt O00444 581-808, looked up)
chain: GYQNRTLRSITSPLVAHRLKPIRQKTKKAVVSILDSEEVCVELVKEYASQEYVKEVLQISSDGNTITIYYPNGGRGFPLADRPPSPTDNISRYSFDNLPEKYWRKYQYASRFVQLVRSKSPKITYFTRYAKCILMENSPGADFEVWFYDGVKIHKTEDFIQVIEKTGKSYTLKSESEVNSLKEEIKMYMDHANEGHRICLALESIISEEERKTRSAPFFPIIIGRKPG
notes: Polo-like kinase 4 (Plk4), cryptic polo-box (CPB), residues 581-808; a TEV site follows His-MBP and the legends call the protein CPB(581–808); Two CPB chains are estimated for each Vpr•VprBP; source: E. coli, purified

Columns and labels:
Plk1 = biological target: T1, Plk1 (UniProt P53350 1-603); experiment: co-IP; HEK293T cells transfected with the indicated constructs; TBSN buffer (20 mM Tris-HCl pH 8.0, 120 mM NaCl, 0.5% Nonidet P-40, 5 mM EGTA, 1.5 mM EDTA, 2 mM DTT); immunoblot; Supplementary Fig. 2b under thymidine or nocodazole treatment; settings: partners not purified
T1 construct: Polo-like kinase 1 (Plk1); also called mitotic Plk1; source: HEK293T, transfected, in lysate

[1] = biological target: T2, Vpr•VprBP WD40-AR complex ( | HIV-1 (NL4-3 isolate), UniProt Q9Y4B6 1057-1507; P12520 1-96); experiment: SEC; purified proteins (Vpr, VprBP WD40-AR, Plk4 CPB, DDB1); TEV-digested HisTrap eluate of Vpr•VprBP mixed with Plk4 CPB; 20 mM Tris-HCl pH 7.5, 100 mM NaCl, 10% glycerol; stoichiometry estimated from Coomassie intensity; settings: both partners purified
T2 construct: DNA synthesised by GenScript; TEV digestion is told for the SEC sample; also called VprBP (WD40-AR)•Vpr complex; source: Trichoplusia ni (Tni)-FNL insect cells, co-expressed, purified (HisTrap, TEV digestion); not shown: His, N-terminal, cleaved; MBP, N-terminal, cleaved; copies: 1 + 1

Plk4 CPB(581–808) = biological target: B2; experiment: as above; settings: both partners purified
DDB1 (purified) = biological target: T3, DDB1 (purified) (UniProt Q16531 1-1140); experiment: as above; settings: both partners purified
T3 construct: DDB1
T3 sequence (Q16531 whole entry): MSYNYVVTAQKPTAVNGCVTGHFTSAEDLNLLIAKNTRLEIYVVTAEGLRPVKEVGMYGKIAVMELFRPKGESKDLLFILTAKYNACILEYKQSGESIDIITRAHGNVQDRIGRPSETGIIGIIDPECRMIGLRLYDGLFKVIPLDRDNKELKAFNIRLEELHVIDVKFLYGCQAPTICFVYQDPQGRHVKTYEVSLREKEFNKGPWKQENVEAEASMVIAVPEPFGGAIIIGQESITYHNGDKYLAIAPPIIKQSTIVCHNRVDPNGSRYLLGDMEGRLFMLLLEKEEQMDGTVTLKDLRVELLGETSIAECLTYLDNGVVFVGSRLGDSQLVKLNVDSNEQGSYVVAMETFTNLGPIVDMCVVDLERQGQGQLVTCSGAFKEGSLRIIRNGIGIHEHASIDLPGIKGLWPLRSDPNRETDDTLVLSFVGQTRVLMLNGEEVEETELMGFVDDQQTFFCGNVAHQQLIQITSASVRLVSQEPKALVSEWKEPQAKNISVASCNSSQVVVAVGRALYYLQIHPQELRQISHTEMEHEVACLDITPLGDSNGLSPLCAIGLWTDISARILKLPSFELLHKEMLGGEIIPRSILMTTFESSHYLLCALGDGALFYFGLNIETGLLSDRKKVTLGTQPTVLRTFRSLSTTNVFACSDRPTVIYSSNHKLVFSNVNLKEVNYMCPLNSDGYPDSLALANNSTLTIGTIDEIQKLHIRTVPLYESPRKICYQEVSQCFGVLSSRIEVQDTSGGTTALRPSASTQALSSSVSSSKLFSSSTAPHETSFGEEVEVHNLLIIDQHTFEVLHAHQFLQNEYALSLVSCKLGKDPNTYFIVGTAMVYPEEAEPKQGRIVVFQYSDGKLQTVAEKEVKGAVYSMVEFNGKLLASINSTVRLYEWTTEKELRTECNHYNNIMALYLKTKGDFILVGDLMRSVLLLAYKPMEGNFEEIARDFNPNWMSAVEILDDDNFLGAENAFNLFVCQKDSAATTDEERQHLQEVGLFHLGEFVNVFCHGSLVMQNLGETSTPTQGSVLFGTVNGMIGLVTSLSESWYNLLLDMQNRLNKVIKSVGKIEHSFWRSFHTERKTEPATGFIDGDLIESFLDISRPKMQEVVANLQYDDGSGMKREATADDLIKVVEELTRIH

T1 sequence (P53350 whole entry): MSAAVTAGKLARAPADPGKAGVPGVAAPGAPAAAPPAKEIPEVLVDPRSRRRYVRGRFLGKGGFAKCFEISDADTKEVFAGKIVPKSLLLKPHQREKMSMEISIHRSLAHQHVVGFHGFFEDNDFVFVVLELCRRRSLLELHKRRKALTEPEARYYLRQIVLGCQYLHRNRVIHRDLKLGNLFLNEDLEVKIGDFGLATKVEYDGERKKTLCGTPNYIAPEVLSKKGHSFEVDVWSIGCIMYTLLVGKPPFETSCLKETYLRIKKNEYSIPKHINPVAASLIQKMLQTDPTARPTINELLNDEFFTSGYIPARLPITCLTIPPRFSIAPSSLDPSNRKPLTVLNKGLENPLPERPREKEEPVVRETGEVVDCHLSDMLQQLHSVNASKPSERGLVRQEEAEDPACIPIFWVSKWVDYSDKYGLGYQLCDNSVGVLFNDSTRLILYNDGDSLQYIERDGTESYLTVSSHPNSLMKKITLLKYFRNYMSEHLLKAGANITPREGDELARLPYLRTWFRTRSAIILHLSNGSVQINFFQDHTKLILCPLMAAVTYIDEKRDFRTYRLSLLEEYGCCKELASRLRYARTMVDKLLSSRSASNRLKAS

B1: VprBP (transfected; construct not specified in the text) (natural protein)
chain: not shown
notes: VprBP (DDB1-CUL4-Associated Factor 1); may be full length or a WD40-containing fragment, and in some panels perhaps the endogenous protein; source: HEK293T, transfected, in lysate
In the case of B1, the “fold weaker binding than Plk4” value (Plk1) is reported as roughly 3 fold.

B2 was tested, and the “stoichiometry N” value [1] was roughly 2.

B3: Vpr (co-expressed with VprBP WD40-AR in insect cells) (natural protein)
chain: MEQAPEDQGPQREPYNEWTLELLEELKSEAVRHFPRIWLHNLGQHIYETYGDTWAGVEAIIRILQQLLFIHFRIGCRHSRIGVTRQRRARNGASRS
notes: also called 11-kDa Vpr
B3: binds (Plk4 CPB(581–808)).

B4: VprBP WD40-AR(1057–1507) (domain or fragment)
chain: not shown
notes: source: Trichoplusia ni (Tni)-FNL insect cells, purified (HisTrap, TEV digestion, SEC); not shown: His, N-terminal, cleaved; MBP, N-terminal, cleaved
B4: binds (DDB1 (purified)).
